Data reported in paper PMC10659930 (Cell Chemical Biology, 2023).

Target: SARS-CoV-2 spike S1 domain (SARS-CoV-2, ancestral (Wuhan-Hu-1/WA1 …, UniProt P0DTC2))
Experiment: ELISA

B1: ADPT02606 (antibody, V domains shown)
VH: EVQLVESGGGLVKPGGSLRLSCAASGFTFSSYSMNWVRQAPGKGLEWVSSITSSSGYMYYADSVKGRFTISRDNAKNSLYLQLNSLRAEDTAVYYCAKDSAFDLWEVRSYYYVMDVWGQGTTVTVSS
VL: not shown
- binding result: binds
